Test results published in patent EP2488198B1.

Molecular target: constitutively activated LFA-1 expressed at a high level on a Jurkat T-lymphocyte cell line (human) (UniProt P20701)
Experiment: cell-based or functional assay

constitutively activated LFA-1 expressed at a high level on a Jurkat T-lymphocyte cell line (human), sequence (P20701 26-1170, chain 1 of 2): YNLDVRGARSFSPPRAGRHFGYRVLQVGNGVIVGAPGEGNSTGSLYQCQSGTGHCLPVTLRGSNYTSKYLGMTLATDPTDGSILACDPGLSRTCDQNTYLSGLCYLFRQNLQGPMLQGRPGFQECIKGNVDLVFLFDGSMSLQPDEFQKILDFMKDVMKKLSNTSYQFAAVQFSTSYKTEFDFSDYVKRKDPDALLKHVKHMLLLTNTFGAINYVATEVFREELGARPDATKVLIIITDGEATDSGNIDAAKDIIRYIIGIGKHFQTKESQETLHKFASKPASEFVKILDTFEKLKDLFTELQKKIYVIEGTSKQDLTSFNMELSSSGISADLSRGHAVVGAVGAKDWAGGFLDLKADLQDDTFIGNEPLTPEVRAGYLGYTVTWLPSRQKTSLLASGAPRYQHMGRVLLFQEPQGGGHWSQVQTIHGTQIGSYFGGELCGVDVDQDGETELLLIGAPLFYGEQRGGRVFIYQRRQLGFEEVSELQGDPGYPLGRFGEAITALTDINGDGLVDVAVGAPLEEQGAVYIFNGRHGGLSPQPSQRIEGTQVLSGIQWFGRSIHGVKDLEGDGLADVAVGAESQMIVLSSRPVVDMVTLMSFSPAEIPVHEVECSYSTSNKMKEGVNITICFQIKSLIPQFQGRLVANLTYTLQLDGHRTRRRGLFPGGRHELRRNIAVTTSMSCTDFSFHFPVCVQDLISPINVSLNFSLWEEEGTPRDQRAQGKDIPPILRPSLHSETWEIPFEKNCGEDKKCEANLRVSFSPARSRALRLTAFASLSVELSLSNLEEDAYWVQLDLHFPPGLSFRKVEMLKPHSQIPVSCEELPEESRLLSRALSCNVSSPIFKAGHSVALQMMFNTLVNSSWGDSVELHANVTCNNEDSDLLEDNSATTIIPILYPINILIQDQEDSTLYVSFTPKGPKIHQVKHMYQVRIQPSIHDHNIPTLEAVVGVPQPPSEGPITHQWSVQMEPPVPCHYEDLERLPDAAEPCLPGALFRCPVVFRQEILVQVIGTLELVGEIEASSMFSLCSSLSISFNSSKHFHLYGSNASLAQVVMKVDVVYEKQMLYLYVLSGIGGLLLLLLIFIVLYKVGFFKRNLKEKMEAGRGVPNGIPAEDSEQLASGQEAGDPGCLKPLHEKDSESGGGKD
constitutively activated LFA-1 expressed at a high level on a Jurkat T-lymphocyte cell line (human), sequence (P05107 23-769, chain 2 of 2, further chain): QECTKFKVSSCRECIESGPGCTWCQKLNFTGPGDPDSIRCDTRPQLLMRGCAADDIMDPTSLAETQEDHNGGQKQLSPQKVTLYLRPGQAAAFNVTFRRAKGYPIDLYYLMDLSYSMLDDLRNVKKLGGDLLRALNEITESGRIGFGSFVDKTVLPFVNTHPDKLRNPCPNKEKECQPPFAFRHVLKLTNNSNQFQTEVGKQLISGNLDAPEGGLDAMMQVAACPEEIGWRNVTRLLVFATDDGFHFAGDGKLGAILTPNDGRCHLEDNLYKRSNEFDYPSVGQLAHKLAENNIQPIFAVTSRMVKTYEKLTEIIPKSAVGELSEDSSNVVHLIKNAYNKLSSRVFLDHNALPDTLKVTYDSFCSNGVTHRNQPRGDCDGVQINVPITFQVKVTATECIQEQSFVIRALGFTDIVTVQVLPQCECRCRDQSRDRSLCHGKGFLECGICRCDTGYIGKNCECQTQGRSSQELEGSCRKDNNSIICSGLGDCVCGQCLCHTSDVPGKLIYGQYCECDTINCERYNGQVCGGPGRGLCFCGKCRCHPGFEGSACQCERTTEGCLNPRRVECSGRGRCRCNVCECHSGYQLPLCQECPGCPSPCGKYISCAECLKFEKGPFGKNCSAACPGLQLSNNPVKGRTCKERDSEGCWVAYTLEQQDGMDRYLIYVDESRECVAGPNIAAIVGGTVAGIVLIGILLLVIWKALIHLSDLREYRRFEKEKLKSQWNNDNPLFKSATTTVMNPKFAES

Leukotoxin (LtxA) of Aggregatibacter actinomycetemcomitans strain NJ4500 (from UniProt P16462 1-1055)
sensitivity to LtxA-mediated toxicity: 10 times
